Measured values taken from US6407216 (Genentech, dated 2002).

How the values were obtained:
[1] = target: T1, rat Smoothened (rSmo), Flag epitope tagged, expressed on transfected cells (rat, UniProt P97698 33-793); test: staining of transfected cells exposed to the ligand
T1 construct: residues 33-793 derived from that statement; Transiently expressed in COS-7 or 293 cells; co-immunoprecipitations were done from cell lysates; also called Flag tagged rSmo
Procedure: (§1) Binding assays were conducted to test binding between cells expressing rSmo or dSmo and (1) epitope tagged SHH-N, (2) an IgG-SHH-N chimera, and (3) an epitope tagged Desert HH. For visualization of SHH binding, COS-7 cells (Genentech, Inc.) transiently expressing rSmo or mPatched (murine Patched) were exposed to epitope tagged SHH-N (2 hours at 4° C.), washed 4 times with PBS, then fixed and stained with a cy3-conjugated anti-human IgG (Jackson ImmunoResearch) (for IgG-SHH-N) or anti-Flag M2 antibody (Kodak/IBI) (for Flag-tagged SHH-N).

[2] = target: T2, Drosophila Smoothened (dSmo), epitope tagged, expressed on transfected cells (Drosophila, UniProt P91682 32-1036); test: as above
T2 construct: cDNA described in Alcedo et al; also called dros.smo
T2 sequence: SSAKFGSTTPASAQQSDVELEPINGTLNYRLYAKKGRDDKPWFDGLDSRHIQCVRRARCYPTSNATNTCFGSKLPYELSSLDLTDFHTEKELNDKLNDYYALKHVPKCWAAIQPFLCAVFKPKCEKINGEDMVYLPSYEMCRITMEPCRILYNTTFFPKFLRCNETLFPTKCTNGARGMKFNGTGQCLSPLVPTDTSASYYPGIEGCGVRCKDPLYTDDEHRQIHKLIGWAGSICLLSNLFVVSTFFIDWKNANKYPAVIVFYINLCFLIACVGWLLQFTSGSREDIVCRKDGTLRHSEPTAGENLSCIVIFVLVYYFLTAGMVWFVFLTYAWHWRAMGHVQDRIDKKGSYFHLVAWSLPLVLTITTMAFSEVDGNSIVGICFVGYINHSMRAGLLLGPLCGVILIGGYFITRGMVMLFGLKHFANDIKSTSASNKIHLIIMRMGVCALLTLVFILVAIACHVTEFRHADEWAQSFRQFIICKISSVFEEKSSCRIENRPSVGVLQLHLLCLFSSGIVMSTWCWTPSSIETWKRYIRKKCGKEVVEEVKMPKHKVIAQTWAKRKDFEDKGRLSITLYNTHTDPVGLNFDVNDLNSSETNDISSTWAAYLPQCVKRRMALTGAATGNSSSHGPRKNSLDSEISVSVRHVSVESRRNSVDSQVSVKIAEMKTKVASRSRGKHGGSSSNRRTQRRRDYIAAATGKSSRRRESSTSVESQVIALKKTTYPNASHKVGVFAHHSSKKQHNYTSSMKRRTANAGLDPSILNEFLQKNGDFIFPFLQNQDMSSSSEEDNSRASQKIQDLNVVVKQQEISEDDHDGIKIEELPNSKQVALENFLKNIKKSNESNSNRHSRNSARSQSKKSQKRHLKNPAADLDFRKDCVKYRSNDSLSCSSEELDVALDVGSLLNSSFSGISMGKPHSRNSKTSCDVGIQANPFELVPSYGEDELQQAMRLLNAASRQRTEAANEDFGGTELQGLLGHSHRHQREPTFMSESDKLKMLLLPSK
Procedure: as §1

T1 sequence (P97698 33-793): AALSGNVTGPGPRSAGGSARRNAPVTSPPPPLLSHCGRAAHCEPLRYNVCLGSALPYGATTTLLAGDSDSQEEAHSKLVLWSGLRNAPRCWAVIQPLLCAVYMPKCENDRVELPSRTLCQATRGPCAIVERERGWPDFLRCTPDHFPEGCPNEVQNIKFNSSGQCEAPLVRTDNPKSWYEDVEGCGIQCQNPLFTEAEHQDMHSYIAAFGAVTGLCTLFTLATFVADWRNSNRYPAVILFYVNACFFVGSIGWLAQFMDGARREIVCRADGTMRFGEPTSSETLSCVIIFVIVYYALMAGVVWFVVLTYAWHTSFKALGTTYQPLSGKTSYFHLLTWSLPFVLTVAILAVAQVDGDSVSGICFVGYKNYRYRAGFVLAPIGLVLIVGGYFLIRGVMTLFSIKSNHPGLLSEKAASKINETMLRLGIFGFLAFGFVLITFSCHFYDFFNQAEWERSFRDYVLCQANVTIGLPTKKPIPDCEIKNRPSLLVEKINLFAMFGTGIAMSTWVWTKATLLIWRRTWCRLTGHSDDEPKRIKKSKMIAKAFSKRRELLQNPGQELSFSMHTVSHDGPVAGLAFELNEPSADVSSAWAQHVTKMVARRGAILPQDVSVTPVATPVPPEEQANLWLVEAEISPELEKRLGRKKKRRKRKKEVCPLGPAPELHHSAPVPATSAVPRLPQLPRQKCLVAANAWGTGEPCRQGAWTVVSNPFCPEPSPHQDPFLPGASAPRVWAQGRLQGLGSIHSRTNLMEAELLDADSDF

- binding result [1]: no binding
- binding result [2]: no binding
B1: epitope tagged Desert HH (ligand, not shown: small tags and cut ends)
chain: not shown
